Experimental findings from patent US20230137139A1, “BIOSYNTHESIS OF CANNABINOIDS AND C[…]” (priority 2020, published 2023) are described below.

Residue numbers refer to the chain shown, from its start.

To fix the notation:
B1: t861559 (protein)
chain: MAPSISFSLLQISLLAYSGLVSGDFSLRQCLESAVSRVAFEGDPFYQLLSVRPYNLDISIVPAAVAFPADTNEVAAVVRCAAQNGYQVQAKSGGHSYANHGLGGTNGAVVVNLENLQHFSMNTTTWEATIGAGTLLGDVTKRLSDAGGRAMAHGTCPQVGSGGHFTIGGLGPSSRQFGAALDHIIEAEVVLANSSIIRASETENPDVFFAVRGAASGFGIVTEFKVRTEPEPGQAVRYSYSFSFSDTATRADLFKKWQAYVTQPDLPRELASTLTILEHGMFITGTFFGSKEEYNALKIETEFPGFAKGGTLVLDDWLGLVSNWAEDLLLSEEEIEQMFEYIDNVDKGTLLWFAIFDLQGGAVGDVPVDATAYAHRDTLIWLQSYAINLFGRISETTVEFLERLNELTLTSTAKTVPYAAYPGYVDPRLTDAQAAYWGSNLARLNRIKAEIDPNNVFHNPQSVRPASG
B2: t861586 (protein)
chain: B1 chain
B3: t861557 (protein)
chain: MLKTIAAVVFICSQAFLVRADLKSELTALGVGAVFPGDSVYTSDAKPYNLRFDFKPAAITFPNTPADVSQIVQIAGKYAHKVAPRGGGHSYISNGVGGMDNSIIADMSHFKSIVVHTNNDTATIETGNRLGDIALALFQYGRGMPHGACPYVGIGGHANFGGFGFISRSWGLTLDVVEAIDLVLANGTITTVSATQNPDLYWAMRGSGSSFGITTAIHVRTFSAPASGIIALDTWYLNLEQAVRALSSFQDFAHNTVTLPSYFGGEFVVNAGPSPGLLSITFFSGFWGPPNQYNSTLAPWKNSMPFPPNTTSYSQGNYIESLSARFGGAPLDTSLGPDNTDTFYVKSLIVPQVTISDEGAQVGISDKAWRALFQYLINEQPNLPVDWFIEVELWGGQNSAINAVPQASTAFAYRDLLWTLQMYSYTPNHQPPYPDAGFAFNDGMANSIIHNMPNGWNYGAYTNYVDNRLDDWQRLYYANHYPALQALKSRYDPSDTFSFPTSIELL
B4: t861555 (protein)
chain: MGNTTSIAGRDCLISALGGNSALAVFPNELLWTADVHEYNLNLPVTPAAITYPETAAQIAGVVKCASDYDYKVQARSGGHSFGNYGLGGADGAVVVDMKHFTQFSMDDETYEAVIGPGTTLNDVDIELYNNGKRAMAHGVCPTIKTGGHFTIGGLGPTARQWGLALDHVEEVEVVLANSSIVRASNTQNQDVFFAVKGAAANFGIVTEFKVRTEPAPGLAVQYSYTFNLGSTAEKAQFVKDWQSFISAKNLTRQFYNNMVIFDGDIILEGLFFGSKEQYDALGLEDHFAPKNPGNILVLTDWLGMVGHALEDTILKLVGNTPTWFYAKSLGFRQDTLIPSAGIDEFFEYIANHTAGTPAWFVTLSLEGGAINDVAEDATAYAHRDVLFWVQLFMVNPVGPISDTTYEFTDGLYDVLARAVPESVGHAYLGCPDPRMEDAQQKYWRTNLPRLQELKEELDPKNTFHHPQGVMPA
B5: t808247 (protein)
chain: MGNTTSIAAGRDCLVSAVGPAHVTFQDALLYQTTAVDPYNLNIPVTPAAVTYPQSAEEIAAVVKCASDYDYKVQARSGGHSFGNYGLGGQNGAIVVDMKHFSQFSMDESTFVATIGPGTTLGDLDTELYNAGGRAMAHGICPTIRTGGHLTVGGLGPTARQWGLALDHIEEVEVVLANSSIVRASNTQNQDILFAVKGAAASFGIVTEFKVRTQEAPGLAVQYSFTFNLGSPAQKAKLVKDWQAFIAQENLSWKFYSNLVIFDGQIILEGIFFGSKEEYDELDLEKRFPTSEPGTVLVLTDWLGMIGHALEDTILKLVGDTPTWFYAKSLGFTPDTLIPDSAIDDFFDYIHKTNAGTLAWFVTLSLEGGAINSVSEDATAYGHRDVLFWFQVFVVNPLGPISQTTYDFTNGLYDVLAQAVPESAGHAYLGCPDPKMPDAQRAYWRSNLPRLEDLKGDLDPKDTFHNPQGVQVGP
B6: t808253 (protein)
chain: B5 chain with D97E, A131T, P232A, A309G
B7: t808240 (protein)
chain: MGNTTSIGVVRDCLTSAVGGVAAHVAFQDTLLYQTSAVKPYNLNVPVTPAAVTYPQSANEVAAIVKCASDYDYKVQARSGGHSFGNFGLGGQNGAIVIDMKHFSQFSMDESTFIATIGPGTTLGNLDTELYNAGNRAMAHGICPSIRTGGHLTVGGLGPTSRQWGLALDHVEEVEVVLANSSVVRASDTQNQDVLFAIKGAAASFGIVTEFKVRTEEAPGLAVRYSYSFNLGTPAEKAKLAKDWQAYIAQENLTWKFSSNLIIFDGQIILEGIFFGSKEEYDKLNLEKKFPTSEPGTVLVITNWLGMIGHALEDTILRLIGDSPTWFYAKSLGFTPNTLIFDSTIDEFFDYIHKANAGTLAWSVMLSLEGGAINAVPKNATAYGHRDVLFWVQIFVVNPLGPISQTTYGFTDGLYNILARGVPESAGHAYLGCPDPKMPDAQRAYWRNNYPRLEELKRDLDPKDIFHNPQGVRVAS

The subject of one assay is CBCA production. In words: In vivo TS activity assay, Example 4 CBCAS enzymes with and without signal peptides, no pH adjustment. Format: cell-based. The settings on record: strains with (Y) or without (N) N-terminal and C-terminal signal peptides; no pH adjustment at Day 4; S. cerevisiae. As for the experimental part: (§1) An assay to detect TS activity was conducted as follows: each thawed glycerol stock of candidate CBCAS transformants was stamped into a well of YEP+4% dextrose media. Samples were incubated at 30° C. in a shaking incubator for 2 days. A portion of each of the resulting cultures was stamped into a well of YEP+4% galactose+1 mM olivetolic acid (FIG. 1 Structure 6a). Samples were incubated at 20° C. and shaken in a shaking incubator for 4 days. Every 24 hours during those 4 days, 2% galactose and 1 mM olivetolic acid were spiked into the cultures. Sodium citrate buffer adjusted to pH 5.5 was added to each well at a final concentration of 100 mM. Samples were incubated at 20° C. and shaken in a shaking incubator for 2 days. A portion of each of the resulting production cultures was stamped into a well of phosphate buffered saline (PBS). Optical measurements were taken on a plate reader, with absorbance measured at 600 nm and fluorescence at 528 nm with 485 nm excitation. Samples were incubated at 30° C. in a shaking incubator for 2 days. 100% methanol was stamped into the production cultures in half-height deepwell plates. Plates were heat sealed and frozen. Samples were then thawed for 30 min and spun down at 4° C. A portion of the supernatant was stamped into half-area 96 well plates. CBCA, THCA, and CBDA production in the samples was quantified via liquid chromatography-mass spectrometry (LC-MS).
A library of 20 CBCAS enzymes selected from Example 1 and 3 was synthesized, including versions of the CBCAS enzymes with and without the N-terminal MFalpha2 signal peptide (SEQ ID NO: 16) and C-terminal HDEL signal peptide (SEQ ID NO: 17). Each candidate enzyme expression construct was transformed into an S. cerevisiae CEN.PK strain that also expressed a prenyltransferase enzyme capable of catalyzing reaction R^4 in FIG. 2. Strain t861555 expressing the A. niger CBCAS identified in Example 1, carrying both the Mfalpha2 and HDEL signal peptides was included in the library screen as a positive control for enzyme activity. Strain t861565 expressed the same A. niger CBCAS without the Mfalpha2 and HDEL signal peptides.
The strains were screened using the assay described in Example 1 with the following exception: at Day 4 samples were not subjected to a pH adjustment and a further 2 days of incubation at 20° C.
On to B1, for which the “Average CBCA” value came out at 0.00 µg/L.
Turning to B2, the “Average CBCA” value is 0.00 µg/L.
On to B3, for which the “Average CBCA” value turned out to be 520.64 µg/L.
Still for that read-out and setting: with B4 the figure was 21237.64 µg/L.

Another assay concerns CBCVA, THCVA, and CBDVA production; CBGVA residual substrate. In words: In vivo TS activity assay, Example 3 metagenomic CBCAS screen, cultures fed divaric acid. Type of assay: cell-based, S. cerevisiae. The settings on record: divaric acid fed (Table 12). As for the experimental part:
as §1
(§2) To explore whether other putative CBCASs may exist in the broader metagenome, a library of 1072 candidate CBCAS genes was designed using the A. niger CBCAS enzyme identified in Example 1 as a reference. Protein sequences were recoded in silico for expression in S. cerevisiae and synthesized in the integrative yeast expression vector shown in FIG. 5. Each candidate enzyme expression construct was transformed into an S. cerevisiae CEN.PK strain that also expressed a prenyltransferase enzyme capable of catalyzing reaction R^4 in FIG. 2. Strain t616313, expressing GFP, was included in the library screen as a negative control for enzyme activity. Strain t807925, expressing the A. niger enzyme identified in Example 1, was included in the library screen as a positive control for enzyme activity. All candidate enzymes in the library, as well as the enzyme expressed by positive control strain t807925, included an N-terminal MFalpha2 signal peptide (SEQ ID NO: 16) (with a methionine residue added at the N-terminus of the MFalpha2 signal peptide) and a C-terminal HDEL signal peptide (SEQ ID NO: 17).
(§3) Based on results of the primary screen, 70 strains were carried forward to a secondary screen to confirm activity observed in the primary screen. The experimental protocol for the secondary screen was identical to the primary screen, except that additional technical replicates were included per strain, and replicate production cultures for each strain were separately fed 1 mM olivetolic acid or 1 mM divaric acid. All strains were screened in quadruplicate (FIGS. 10A-10C, Tables 10 and 11).
As for B5, the “Average CBGVA residual substrate” value worked out at 0.00 µg/L.
The same measure, in the same setting: with B6 the figure was 0.00 µg/L; with B7, 4054.85 µg/L.

The same assay, now with this note: secondary screen, cultures fed 1 mM divaric acid, S. cerevisiae, quadruplicate, LC-MS.
In the case of B5, the “Mean CBCVA” value stood at 2651.55 µg/L, the “Mean CBDVA” value was 15.16 µg/L and the “Mean THCVA” value was found to be 1783.19 µg/L.
For B6, the “Mean CBCVA” value stood at 1476.99 µg/L, the “Mean CBDVA” value is 0.00 µg/L and the “Mean THCVA” value was 715.85 µg/L.
The matching figures for B7: 4282.13 µg/L, 0.00 µg/L and 888.75 µg/L.

The assay is the same for the next values; noted with them: share of terminal cannabinoid products, cultures fed 1 mM divaric acid.
With B5, the “% CBCVA” value worked out at 59.59%, the “% CBDVA” value turned out to be 0.34% and the “% THCVA” value amounted to 40.07%.
On to B6, for which the “% CBCVA” value is 67.35%, the “% CBDVA” value is listed as 0.00% and the “% THCVA” value stood at 32.65%.
For the molecule B7, the “% CBCVA” value came to 82.81%, the “% CBDVA” value was found to be 0.00% and the “% THCVA” value turned out to be 17.19%.

In a further assay the test system is CBCA, THCA, and CBDA production; CBGA residual substrate. In words: In vivo TS activity assay, Example 3 metagenomic CBCAS screen, cultures fed olivetolic acid. Format: cell-based, S. cerevisiae. The settings on record: metagenomic CBCAS candidates in S. cerevisiae, secondary screen, fed 1 mM olivetolic acid, quadruplicate. As for the experimental part:
as §1, §2
The library of candidate CBCAS enzymes was assayed for activity in a primary high-throughput screen using the assay described in Example 1. Production of CBCA, THCA, and/or CBDA in the samples was quantified via LC-MS.
as §3
For B5, the “Mean CBCA” value is 27052.63 µg/L, the “Mean CBDA” value was found to be 420.85 µg/L and the “Mean THCA” value was 1703.93 µg/L.
On the same counts, the results for B6 are 15518.14 µg/L, 63.99 µg/L and 916.93 µg/L.
The matching figures for B7: 6248.43 µg/L, 0.00 µg/L and 115.70 µg/L.

Still in this assay, the particulars now being: olivetolic acid fed (Table 12).
As to B5, the “Average CBGA residual substrate” value was found to be 0.00 µg/L.
Still for that read-out and setting: with B6 the figure was 0.00 µg/L.
On the same count and under the same terms, with B7 the figure was 24393.82 µg/L.

The same assay, now with this note: share of terminal cannabinoid product profile, fed 1 mM olivetolic acid.
As to B5, the “% CBCA” value came to 92.72%, the “% CBDA” value was 1.44% and the “% THCA” value was determined as 5.84%.
On the same counts, the results for B6 are 94.05%, 0.39% and 5.56%.
Turning to B7, the “% CBCA” value was 98.18%, the “% CBDA” value was found to be 0.00% and the “% THCA” value stood at 1.82%.
